The series deals with the molecule itself. Kind of series: SEC-MALS.

B1: DCP2_(C-tail), untagged (domain or fragment, human, UniProt Q8IU60 249-353, looked up)
chain: SDNGFSSTGSTPAKPTVEKLSRTKFRHSQQLFPDGSPGDQWVKHRQPLQQKPYNNHSEMSDLLKGKNQSMRGNGRKQYQDSPNQKKRTNGLQPAKQQNSLMKCEK
For the protein B1, the binding result is given as “binds”.

(Values after article PMC9561381 (Nucleic Acids Research, 2022).)
